Assay results reported in paper PMC7949109, “Trans-2-enoyl-CoA reductase limits Ca^2+ accumulation in the endoplasmic reticulum by inhibiting the Ca^2+ pump SERCA2b” (The Journal of Biological Chemistry, 2021).

Target: T1, PA-SERCA2b (recombinant SERCA2b with an N-terminal PA-tag) (human, UniProt P16615-1 1-1042)
T1 construct: human SERCA2b; cDNA in the pFastBac1 vector; source: Sf21 cells (baculovirus), solubilised with DDM, purified on anti-PA-tag NZ-1 Sepharose, eluted with PA-tag peptide; not shown: PA-tag, N-terminal, kept
T1 sequence (P16615 whole entry): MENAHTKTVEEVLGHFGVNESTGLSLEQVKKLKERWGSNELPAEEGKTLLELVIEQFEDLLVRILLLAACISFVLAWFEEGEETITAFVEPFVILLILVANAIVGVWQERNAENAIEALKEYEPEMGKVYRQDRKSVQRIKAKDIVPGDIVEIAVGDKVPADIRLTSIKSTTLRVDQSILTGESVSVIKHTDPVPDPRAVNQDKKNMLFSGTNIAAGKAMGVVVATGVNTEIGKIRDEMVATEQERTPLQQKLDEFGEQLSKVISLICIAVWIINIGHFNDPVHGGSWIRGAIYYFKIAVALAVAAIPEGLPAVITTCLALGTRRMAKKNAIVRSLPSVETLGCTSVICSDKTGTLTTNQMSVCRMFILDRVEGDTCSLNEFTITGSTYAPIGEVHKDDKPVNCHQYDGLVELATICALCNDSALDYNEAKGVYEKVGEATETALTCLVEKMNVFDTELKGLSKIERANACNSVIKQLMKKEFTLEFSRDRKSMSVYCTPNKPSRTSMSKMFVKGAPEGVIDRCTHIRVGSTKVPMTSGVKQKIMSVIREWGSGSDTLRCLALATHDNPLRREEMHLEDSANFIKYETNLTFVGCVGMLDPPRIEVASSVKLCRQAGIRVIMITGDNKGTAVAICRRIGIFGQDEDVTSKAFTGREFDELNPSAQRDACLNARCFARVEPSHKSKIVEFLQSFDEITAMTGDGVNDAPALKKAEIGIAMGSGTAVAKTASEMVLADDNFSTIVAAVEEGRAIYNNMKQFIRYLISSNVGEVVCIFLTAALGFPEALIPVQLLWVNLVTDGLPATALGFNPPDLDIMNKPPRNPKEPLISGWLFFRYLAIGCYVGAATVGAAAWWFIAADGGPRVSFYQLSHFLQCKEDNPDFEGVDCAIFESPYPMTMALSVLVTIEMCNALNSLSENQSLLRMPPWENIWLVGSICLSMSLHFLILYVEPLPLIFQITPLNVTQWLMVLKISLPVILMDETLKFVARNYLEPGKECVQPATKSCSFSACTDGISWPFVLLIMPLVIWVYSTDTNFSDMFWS
Assay: pull-down; PA-SERCA2b (50 pmol) incubated with FLAG–TER (125 pmol) immobilised on anti-FLAG mAb resin, or resin alone, 4 °C 2 h; buffer H (50 mM Hepes–NaOH pH 7.0, 100 mM NaCl, 1 mM MgCl2, 5 mM EGTA, 1% DDM, 20% glycerol) with or without 100 nM free Ca2+; CBB staining; also 0.25 uM PA-SERCA2b pretreated with 2.5 uM thapsigargin (less pulled down)
Conditions: both partners purified

binding result: binds
B1: FLAG–TER (recombinant TER with an N-terminal FLAG-tag), from insect cells (enzyme, human, UniProt Q9NZ01 1-308, looked up)
chain: MKHYEVEILDAKTREKLCFLDKVEPHATIAEIKNLFTKTHPQWYPARQSLRLDPKGKSLKDEDVLQKLPVGTTATLYFRDLGAQISWVTVFLTEYAGPLFIYLLFYFRVPFIYGHKYDFTSSRHTVVHLACICHSFHYIKRLLETLFVHRFSHGTMPLRNIFKNCTYYWGFAAWMAYYINHPLYTPPTYGAQQVKLALAIFVICQLGNFSIHMALRDLRPAGSKTRKIPYPTKNPFTWLFLLVSCPNYTYEVGSWIGFAIMTQCLPVALFSLVGFTQMTIWAKGKHRSYLKEFRDYPPLRMPIIPFLL
notes: human trans-2-enoyl-CoA reductase (TER); cDNA in the pFastBacFLAGa vector; not shown: FLAG, N-terminal, kept
